Measured values taken from patent publication US20150202287A1, “COMBINATION THERAPIES COMPRISING ANTI-ERBB3 AGENTS” (Merrimack Pharmaceuticals, Inc., priority 2012, published 2015).

Columns and labels:
phospho-ErbB3 (pErbB3) [1] = test: Cell signaling assay, pErbB3 ELISA, ZR75-30; type: cell-based; conditions: ZR75-30 cells, stimulation with 5 nM heregulin for 10 min; read-out: IC50, reduction of pErbB3 levels
Method: (§1) Cell lysates are probed for phospho-ErbB3 (pErbB3), and phospho-AKT (pAKT) by ELISA as described previously (Schoeberl et al, 2009) Inhibitor IC50 values are calculated by fitting dose-response data to a 4-parameter sigmoidal curve (GraphPad Prism®, GraphPad Software, Inc., La Jolla, Calif.).
(§2) CRL-1504®), cells were incubated with serial dilutions of either inhibitor for 15 minutes, 1 hour, 4 hours, and 24 hours followed by stimulation with 5 nM heregulin for 10 min Amounts of pAKT and pErbB3 were measured by ELISA essentially as described.

phospho-AKT (pAKT) = test: Cell signaling assay, pAKT ELISA, ZR75-30; type: cell-based; conditions: ZR75-30 cells, stimulation with 5 nM heregulin for 10 min; read-out: IC50, reduction of pAKT levels
Method: as §1, §2

NCI-N87 cells = test: T-DM1 and heregulin dose matrix cell viability, NCI-N87; type: cell-based; conditions: for cell viability: T-DM1 0 μg/ml, with MM-111 1 μM, 72 h
Method: Cells were allowed to adhere 16-20 hours at +37° C., 5% CO2. Cells were stimulated for 4 hours by adding 5 μl of culture media containing recombinant human NRG-1-β1 EGF domain (HRG1) bringing the final HRG1 stimulation concentration to 0, 0.313, 0.625, 1.25, 2.5, 5 or 10 nM. […] All conditions were assayed in biological quadruplicates. Cells were incubated for 72 h at +37° C., 5% CO2. Cell viability was determined by CellTiter-Glo® Luminescent Cell Viability Assay by adding 20 μl of reconstituted CellTiter-Glo reagent per well, incubating plated for 10 minutes at RT in an orbital shaker and reading the luminescence signal using Biotek™ Synergy H1 Hybrid Reader.

ErbB2 and ErbB3 = test: Affinity of MM-111 antigen-binding sites
phospho-ErbB3 (pErbB3) [2] = type: cell-based; conditions: up to 24 hours incubation
Method: as §1
Model-generated dose-response curves overlay the experimental data (FIG. 7a). […] Untreated and heregulin-stimulated cells were probed for pErbB3 and pAKT and the IC50 was calculated (FIG. 7b).
as §2

Row | Substance | IC50 (phospho-ErbB3 (pErbB3) [1]) | IC50 (phospho-AKT (pAKT)) | cell viability (NCI-N87 cells; HRG 0 nM) | cell viability (NCI-N87 cells; HRG 0.313 nM) | cell viability (NCI-N87 cells; HRG 0.625 nM) | cell viability (NCI-N87 cells; HRG 1.25 nM) | cell viability (NCI-N87 cells; HRG 2.5 nM) | cell viability (NCI-N87 cells; HRG 5 nM) | cell viability (NCI-N87 cells; HRG 10 nM) | affinity of ErbB2 antigen-binding site relative to ErbB3 antigen-binding site (ErbB2 and ErbB3) | inhibition of heregulin-induced ErbB3 activation relative to lapatinib (phospho-ErbB3 (pErbB3) [2]) | activity of T-DM1 with exogenous HRG (NCI-N87 cells; HRG 0.313-10 nM)
1 | MM-111 | 5 nM | 4 nM | 100 % of control | 101.4158 % of control | 105.024 % of control | 110.2781 % of control | 118.0867 % of control | 126.5145 % of control | 146.1417 % of control | about 30 times | superior to lapatinib by greater than an order of magnitude | 
2 | ado-trastuzumab emtansine [T-DM1, reference compound] |  |  |  |  |  |  |  |  |  |  |  | exogenous HRG decreases the activity of T-DM1
